Source: patent US20200317768A1 (published 2020)

Key:
[1] = target: T1, Human latent myostatin (human, UniProt O14793 25-266; O14793 267-375); experiment: SPR (BIACORE T200) 37C, pH 5.8, antibody captured by ProA/G
T1 construct: also called human myostatin latent form
T1 sequence 1: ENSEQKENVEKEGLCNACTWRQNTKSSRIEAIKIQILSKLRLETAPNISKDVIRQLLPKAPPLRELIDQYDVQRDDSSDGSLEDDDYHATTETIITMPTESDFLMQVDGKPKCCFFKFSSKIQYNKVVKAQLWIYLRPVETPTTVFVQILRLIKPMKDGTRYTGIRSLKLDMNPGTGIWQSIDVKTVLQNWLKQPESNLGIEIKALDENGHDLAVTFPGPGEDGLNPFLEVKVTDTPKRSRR
T1 sequence 2: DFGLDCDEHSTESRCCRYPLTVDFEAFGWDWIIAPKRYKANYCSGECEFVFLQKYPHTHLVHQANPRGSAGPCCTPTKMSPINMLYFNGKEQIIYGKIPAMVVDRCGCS

[2] = target: T2, Mouse latent myostatin (mouse, UniProt O08689 26-267; O08689 268-376); experiment: as above
T2 construct: Latent form = complex of two propeptides and the mature dimer
T2 sequence 1: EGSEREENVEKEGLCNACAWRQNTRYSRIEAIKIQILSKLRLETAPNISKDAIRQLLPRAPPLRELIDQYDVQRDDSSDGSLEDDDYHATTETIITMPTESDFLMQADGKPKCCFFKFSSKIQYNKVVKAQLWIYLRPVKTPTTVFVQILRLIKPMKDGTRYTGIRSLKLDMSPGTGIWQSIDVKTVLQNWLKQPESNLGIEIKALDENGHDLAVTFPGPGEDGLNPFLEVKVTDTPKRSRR
T2 sequence 2: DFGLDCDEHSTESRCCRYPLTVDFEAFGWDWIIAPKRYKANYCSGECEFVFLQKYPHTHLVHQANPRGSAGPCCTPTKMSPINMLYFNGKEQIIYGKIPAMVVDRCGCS

[3] = target: T3, Cynomolgus monkey latent myostatin (cynomolgus monkey, UniProt Q95J86 25-266; Q95J86 267-375); experiment: as above
T3 construct: Latent form = complex of two propeptides and the mature dimer; also called Cyno latent myostatin
T3 sequence 1: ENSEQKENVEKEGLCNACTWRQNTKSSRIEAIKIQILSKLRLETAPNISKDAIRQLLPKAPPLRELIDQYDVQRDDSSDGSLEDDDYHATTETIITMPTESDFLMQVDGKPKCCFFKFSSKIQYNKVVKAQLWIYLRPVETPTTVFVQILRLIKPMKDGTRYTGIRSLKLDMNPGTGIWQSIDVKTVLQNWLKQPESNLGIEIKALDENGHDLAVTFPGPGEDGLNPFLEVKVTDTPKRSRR
T3 sequence 2: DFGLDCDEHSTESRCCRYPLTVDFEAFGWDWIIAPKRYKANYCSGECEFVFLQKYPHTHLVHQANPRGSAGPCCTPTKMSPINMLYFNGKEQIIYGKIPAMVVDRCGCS

[4] = target: T4, cynomolgus monkey FcγRIIa3 extracellular domain, C-terminal His-tag (cynomolgus monkey); experiment: SPR; FcgR bound per captured antibody, normalized to SG1
T4 construct: also called cyno FcγRIIa3; FcgRIIa3
T4 chain: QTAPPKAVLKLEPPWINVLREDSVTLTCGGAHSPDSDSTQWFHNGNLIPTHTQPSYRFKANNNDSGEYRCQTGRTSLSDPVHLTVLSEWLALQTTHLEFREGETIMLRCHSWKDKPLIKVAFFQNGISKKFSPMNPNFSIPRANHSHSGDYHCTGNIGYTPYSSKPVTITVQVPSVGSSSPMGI

[5] = target: T5, cynomolgus monkey FcγRIIIaS extracellular domain, C-terminal His-tag (cynomolgus monkey, UniProt Q8SPW2 21-206 at identity 1.00)); experiment: as above
T5 construct: also called cyno FcγRIIIaS; FcgRIIIaS
T5 chain: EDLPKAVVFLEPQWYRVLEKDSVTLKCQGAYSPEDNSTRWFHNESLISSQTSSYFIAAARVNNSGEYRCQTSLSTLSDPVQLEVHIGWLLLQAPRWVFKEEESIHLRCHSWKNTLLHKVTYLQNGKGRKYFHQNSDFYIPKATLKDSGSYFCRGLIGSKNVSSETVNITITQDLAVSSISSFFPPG

Kd [1]: 34 nM
Kd [2]: 22.6 nM
Kd [3]: 25.9 nM
amount of FcgR binding (SG1 = 100) [4]: 100 SG1 = 100
amount of FcgR binding (SG1 = 100) [5]: 100 SG1 = 100
B1: MS_M103205H795-SG1/M103202L889-SK1 (antibody, human IgG1, kappa)
heavy: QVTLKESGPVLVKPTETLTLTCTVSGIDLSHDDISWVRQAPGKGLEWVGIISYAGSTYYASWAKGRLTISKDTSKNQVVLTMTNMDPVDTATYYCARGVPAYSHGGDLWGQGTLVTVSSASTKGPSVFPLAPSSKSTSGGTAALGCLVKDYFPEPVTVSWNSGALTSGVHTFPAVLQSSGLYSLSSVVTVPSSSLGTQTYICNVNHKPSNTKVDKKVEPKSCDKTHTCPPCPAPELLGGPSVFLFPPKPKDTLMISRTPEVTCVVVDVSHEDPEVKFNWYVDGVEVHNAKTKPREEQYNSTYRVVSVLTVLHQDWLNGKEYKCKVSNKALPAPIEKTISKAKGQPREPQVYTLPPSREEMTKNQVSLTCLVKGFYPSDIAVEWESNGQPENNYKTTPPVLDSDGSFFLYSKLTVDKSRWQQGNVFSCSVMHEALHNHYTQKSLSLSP
light: DIVMTQSPATLSLSPGERATLSCTSSQSVYHANWLSWFQQKPGQPPKLLIYWASTLAYGVPSRFSGSGSGTDFTLTISSLQPEDAATYYCAGGYGGGRYAFGQGTKVEIKRTVAAPSVFIFPPSDEQLKSGTASVVCLLNNFYPREAKVQWKVDNALQSGNSQESVTEQDSKDSTYSLSSTLTLSKADYEKHKVYACEVTHQGLSSPVTKSFNRGEC
notes: also called MS1032LO06-SG1
